Results on one molecule are retold here after patent US7314621B2, “Cytidine deaminase” (Kyoto University, priority 1999, dated 2008).

Data set [1] is described as follows: Cytidine deaminase activity of the AID protein ([3H]deoxycytidine to deoxyuridine, TLC). The data set is classed as biochemical. The following applies: AID-GST fusion protein 2 to 600 ng, pH 7.5, 2 to 4 hours. The method, then: A cytidine deaminase activity of AID was measured by the same method as in the previous report (J Biol. Chem. 270:14768-14775, 1995).
The purified AID-GST fusion protein prepared in the above (2, 4, 6, 8, 10, 20, 40, 60, 100, 200, 300, 400, and 600 ng) was incubated in the buffer (pH 7.5, the total amount 10 μl) containing 45 mM Tris with 3.3 μCi [^3H] deoxycytidine (24.8 Ci/mmol, DuPont) and 250 μM cytidine for 2 to 4 hours. The reaction was terminated by adding deoxycytidine (2 μl of 10 μg/ml) and deoxyuridine (2 μl of 10 μg/ml). Insoluble substances were removed by centrifugation, and the reaction mixture (4 μl) was subjected to the polyethylene imine-cellulose thin layer chromatography plate (VWR). The plate was developed in isopropyl alcohol/10% HCl (7:2 v/v). The plate was exposed to ultraviolet light (254 nm) for visualization and bands corresponding to deoxycytidine and deoxyuridine were collected, and added to Ultima Gold scintillation solution to be quantified by liquid scintillation photometer (Packard)

The subject of a further data set is AU-rich RNA (5-AU). In words: Gel retardation assay, avidity to AU-rich RNA. It counts as binding. The text has this: Since the AID protein has a functional cytidine deaminase activity as well as a structural similarity to APOBEC-1, to examine RNA editing activity in the AID protein, avidity to AU-rich RNA (5-AU) and apoB RNA (which are RNA substrates for APOBEC-1) was examined.

B1: AID protein: activation-induced cytidine deaminase, novel mouse protein (SEQ ID NO:2), tested as purified GST fusion protein (protein)
chain: MDSLLMKQKKFLYHFKNVRWAKGRHETYLCYVVKRRDSATSCSLDFGHLRNKSGCHVELLFLRYISDWDLDPGRCYRVTWFTSWSPCYDCARHVAEFLRWNPNLSLRIFTARLYFCEDRKAEPEGLRRLHRAGVQIGIMTFKDYFYCWNTFVENRERTFKAWEGLHENSVRLTRQLRRILLPLYEVDDLRDAFRMLGF
modifications: left off: a dimerising Fc or GST
On to B1, for which, in data set [1], the cytidine deaminase activity entry is recorded as “concentration-dependent cytidine deaminase activity”. Also, the “avidity to AU-rich RNA (5-AU)” value in the data set on AU-rich RNA (5-AU) is reported as “did not show avidity”.
